Test results taken from publication doi:10.1101/2023.06.24.546380.

Key:
[1] = molecular target: intracellular domain of the tight junction receptor JAM-A (UniProt Q9Y624)
[2] = molecular target: Zonula occludens scaffold protein ZO1 (UniProt Q07157); experiment: partitioning of actin into ZO1 surface condensates on supported lipid bilayers
UniProt Q07157, sequence (Q07157 whole entry): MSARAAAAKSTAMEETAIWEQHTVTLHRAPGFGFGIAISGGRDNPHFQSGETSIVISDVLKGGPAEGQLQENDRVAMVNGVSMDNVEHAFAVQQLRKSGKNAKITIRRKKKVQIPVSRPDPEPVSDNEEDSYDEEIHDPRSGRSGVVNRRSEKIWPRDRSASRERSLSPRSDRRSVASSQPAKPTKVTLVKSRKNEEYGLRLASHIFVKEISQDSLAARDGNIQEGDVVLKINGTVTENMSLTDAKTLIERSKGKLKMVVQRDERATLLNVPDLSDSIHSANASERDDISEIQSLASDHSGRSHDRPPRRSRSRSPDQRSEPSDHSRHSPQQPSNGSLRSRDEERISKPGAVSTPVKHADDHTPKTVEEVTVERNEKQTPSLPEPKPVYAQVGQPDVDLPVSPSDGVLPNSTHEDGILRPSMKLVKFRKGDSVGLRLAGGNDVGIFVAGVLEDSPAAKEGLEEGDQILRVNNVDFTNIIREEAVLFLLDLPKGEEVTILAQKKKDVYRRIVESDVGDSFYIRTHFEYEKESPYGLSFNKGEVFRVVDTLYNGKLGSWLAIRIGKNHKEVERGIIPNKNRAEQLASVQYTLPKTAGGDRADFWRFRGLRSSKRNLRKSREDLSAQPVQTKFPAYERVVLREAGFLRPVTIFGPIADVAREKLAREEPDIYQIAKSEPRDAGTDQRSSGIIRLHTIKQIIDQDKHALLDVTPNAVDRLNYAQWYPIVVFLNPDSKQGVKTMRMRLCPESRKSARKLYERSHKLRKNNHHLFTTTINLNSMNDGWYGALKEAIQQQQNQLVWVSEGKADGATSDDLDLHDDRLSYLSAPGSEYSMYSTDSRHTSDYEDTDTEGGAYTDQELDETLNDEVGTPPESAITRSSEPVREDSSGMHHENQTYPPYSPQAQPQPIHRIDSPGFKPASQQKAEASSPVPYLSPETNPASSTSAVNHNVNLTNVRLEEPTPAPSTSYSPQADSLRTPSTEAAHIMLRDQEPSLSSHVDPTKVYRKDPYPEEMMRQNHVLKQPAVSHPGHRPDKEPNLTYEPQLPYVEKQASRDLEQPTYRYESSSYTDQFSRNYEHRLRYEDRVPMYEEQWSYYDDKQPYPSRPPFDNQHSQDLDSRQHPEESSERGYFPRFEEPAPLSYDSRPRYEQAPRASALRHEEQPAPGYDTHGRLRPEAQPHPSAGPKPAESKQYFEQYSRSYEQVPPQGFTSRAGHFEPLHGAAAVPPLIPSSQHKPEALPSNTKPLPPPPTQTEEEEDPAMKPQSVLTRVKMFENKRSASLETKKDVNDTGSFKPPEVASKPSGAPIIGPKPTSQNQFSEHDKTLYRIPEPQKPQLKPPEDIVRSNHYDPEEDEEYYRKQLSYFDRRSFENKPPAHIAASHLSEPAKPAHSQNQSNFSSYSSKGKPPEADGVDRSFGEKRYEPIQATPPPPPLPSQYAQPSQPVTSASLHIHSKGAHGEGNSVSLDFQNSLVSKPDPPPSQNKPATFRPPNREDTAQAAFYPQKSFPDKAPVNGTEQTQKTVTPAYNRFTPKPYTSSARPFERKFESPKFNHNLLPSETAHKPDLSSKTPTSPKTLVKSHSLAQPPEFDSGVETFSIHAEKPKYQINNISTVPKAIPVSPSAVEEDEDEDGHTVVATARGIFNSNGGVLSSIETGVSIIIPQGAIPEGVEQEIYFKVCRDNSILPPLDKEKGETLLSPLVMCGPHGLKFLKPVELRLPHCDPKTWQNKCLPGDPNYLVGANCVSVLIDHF

UniProt Q9Y624, sequence (Q9Y624 28-299): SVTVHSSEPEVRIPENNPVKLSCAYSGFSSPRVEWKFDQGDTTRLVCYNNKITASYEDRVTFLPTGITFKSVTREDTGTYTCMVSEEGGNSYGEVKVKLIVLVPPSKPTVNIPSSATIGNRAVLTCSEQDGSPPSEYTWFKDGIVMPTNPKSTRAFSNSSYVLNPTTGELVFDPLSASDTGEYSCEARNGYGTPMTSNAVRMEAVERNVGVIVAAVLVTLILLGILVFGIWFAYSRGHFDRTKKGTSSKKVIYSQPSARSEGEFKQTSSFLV

fold enrichment in the dense ZO1 phase [1] [fold]	fold enrichment in the surface condensates [2] [fold]	Substance
2	–	Zonula occludens scaffold protein ZO1 (from UniProt Q07157 1-1748) (natural protein)
–	5	G-actin-Alexa Fluor 647 (from UniProt P68135 1-377) (natural protein)
